Drawing on US20140134132A1, this text covers OATP1B13 IC50, MRP2 IC50 and NIM TDI kinact/Ki for 16 substances.

Holding throughout (assay): cell-based or functional assay
Test [1] addresses organic anion transporting polypeptide 1B1 (UniProt Q9Y6L6).
Test [2] has as its target multidrug resistance associated protein 2 (human) (UniProt Q92887).
Another test concerns the target CYP3A4 (UniProt P08684).

CYP3A4, sequence (P08684 whole entry): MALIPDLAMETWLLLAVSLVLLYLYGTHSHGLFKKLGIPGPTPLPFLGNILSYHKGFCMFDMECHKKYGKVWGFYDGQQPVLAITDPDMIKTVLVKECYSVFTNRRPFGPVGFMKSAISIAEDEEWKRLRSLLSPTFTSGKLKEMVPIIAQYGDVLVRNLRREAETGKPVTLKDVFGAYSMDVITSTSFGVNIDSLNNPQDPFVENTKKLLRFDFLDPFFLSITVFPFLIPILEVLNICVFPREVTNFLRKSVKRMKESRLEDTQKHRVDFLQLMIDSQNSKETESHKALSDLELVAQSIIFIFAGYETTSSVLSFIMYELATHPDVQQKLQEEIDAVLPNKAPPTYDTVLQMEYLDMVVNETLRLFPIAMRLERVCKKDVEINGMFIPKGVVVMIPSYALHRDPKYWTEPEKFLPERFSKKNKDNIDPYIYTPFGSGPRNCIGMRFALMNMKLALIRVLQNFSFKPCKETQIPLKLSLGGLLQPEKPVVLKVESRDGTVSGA
multidrug resistance associated protein 2 (human), sequence (Q92887 whole entry): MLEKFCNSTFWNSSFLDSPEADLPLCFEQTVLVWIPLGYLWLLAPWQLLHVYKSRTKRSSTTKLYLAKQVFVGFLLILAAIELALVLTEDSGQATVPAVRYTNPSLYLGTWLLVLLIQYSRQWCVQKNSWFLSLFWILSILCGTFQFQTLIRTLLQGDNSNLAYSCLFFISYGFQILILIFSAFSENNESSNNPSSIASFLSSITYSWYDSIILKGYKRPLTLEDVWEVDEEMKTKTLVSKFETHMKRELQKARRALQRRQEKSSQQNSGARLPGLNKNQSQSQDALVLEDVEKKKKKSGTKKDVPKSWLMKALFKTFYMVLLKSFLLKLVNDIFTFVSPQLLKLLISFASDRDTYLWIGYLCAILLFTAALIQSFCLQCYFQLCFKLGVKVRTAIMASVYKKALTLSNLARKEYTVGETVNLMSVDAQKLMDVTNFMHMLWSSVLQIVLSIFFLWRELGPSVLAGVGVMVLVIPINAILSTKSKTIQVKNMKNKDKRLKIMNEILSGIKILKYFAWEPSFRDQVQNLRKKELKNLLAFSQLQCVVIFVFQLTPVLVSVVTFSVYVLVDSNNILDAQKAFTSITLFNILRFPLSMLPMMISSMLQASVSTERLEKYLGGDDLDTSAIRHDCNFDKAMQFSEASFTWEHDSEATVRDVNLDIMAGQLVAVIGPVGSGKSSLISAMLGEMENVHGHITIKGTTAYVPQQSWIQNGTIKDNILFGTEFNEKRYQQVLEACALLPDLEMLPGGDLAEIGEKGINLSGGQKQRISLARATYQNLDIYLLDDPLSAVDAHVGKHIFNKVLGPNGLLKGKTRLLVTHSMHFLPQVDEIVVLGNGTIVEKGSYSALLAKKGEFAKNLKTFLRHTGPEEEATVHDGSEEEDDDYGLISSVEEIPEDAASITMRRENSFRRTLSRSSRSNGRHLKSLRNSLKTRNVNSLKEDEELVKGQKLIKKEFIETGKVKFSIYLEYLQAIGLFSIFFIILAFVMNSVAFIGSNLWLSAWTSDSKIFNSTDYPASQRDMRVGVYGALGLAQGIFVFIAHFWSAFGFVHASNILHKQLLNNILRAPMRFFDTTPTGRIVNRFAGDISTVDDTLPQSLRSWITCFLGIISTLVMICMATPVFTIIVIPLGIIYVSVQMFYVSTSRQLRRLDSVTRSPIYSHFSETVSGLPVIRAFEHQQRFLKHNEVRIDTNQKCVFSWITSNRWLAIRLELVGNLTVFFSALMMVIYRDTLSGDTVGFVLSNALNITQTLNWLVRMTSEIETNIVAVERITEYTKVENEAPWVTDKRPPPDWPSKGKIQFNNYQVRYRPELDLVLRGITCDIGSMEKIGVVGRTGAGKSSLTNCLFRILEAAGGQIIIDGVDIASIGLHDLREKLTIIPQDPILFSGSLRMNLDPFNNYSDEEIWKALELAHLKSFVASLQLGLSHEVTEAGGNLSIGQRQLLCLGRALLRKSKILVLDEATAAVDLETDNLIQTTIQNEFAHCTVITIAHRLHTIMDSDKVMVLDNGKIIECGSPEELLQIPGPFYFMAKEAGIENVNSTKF
organic anion transporting polypeptide 1B1, sequence (Q9Y6L6 whole entry): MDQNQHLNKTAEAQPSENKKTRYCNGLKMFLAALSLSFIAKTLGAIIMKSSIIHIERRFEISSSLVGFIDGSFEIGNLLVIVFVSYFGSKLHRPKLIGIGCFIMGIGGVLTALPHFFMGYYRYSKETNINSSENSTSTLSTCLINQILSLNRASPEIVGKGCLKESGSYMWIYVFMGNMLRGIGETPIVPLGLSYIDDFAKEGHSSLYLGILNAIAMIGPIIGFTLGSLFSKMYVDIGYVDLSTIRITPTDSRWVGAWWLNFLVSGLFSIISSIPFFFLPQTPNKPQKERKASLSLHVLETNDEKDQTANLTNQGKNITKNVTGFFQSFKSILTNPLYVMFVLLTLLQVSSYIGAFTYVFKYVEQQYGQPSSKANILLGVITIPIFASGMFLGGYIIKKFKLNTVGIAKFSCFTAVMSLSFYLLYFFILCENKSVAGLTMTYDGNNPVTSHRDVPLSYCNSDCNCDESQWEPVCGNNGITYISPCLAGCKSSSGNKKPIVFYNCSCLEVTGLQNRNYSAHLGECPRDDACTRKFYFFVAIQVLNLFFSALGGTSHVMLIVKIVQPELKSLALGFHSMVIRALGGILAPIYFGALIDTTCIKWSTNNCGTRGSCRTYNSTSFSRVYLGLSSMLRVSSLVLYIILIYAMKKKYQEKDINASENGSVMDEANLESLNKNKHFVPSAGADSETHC

In turn, “3-[D-Ala]-4-[(2S,3R)-3-methyl-2-(methylamino)-4-(4-(methylsulfonyl)piperazin-1-yl)butanoyl]-cyclosporin (peptide)” gave an OATP1B13 IC50 in test [1] of 4.8 µM. The substance further returned an MRP2 IC50 in test [2] of 13 µM.

“3-[D-Ala]-4-[(2S,3R)-3-methyl-2-(methylamino)-4-morpholinobutanoyl]-cyclosporin (peptide)” yielded an OATP1B13 IC50 in test [1] of 8.2 µM. Also, the MRP2 IC50 in test [2] turned out to be 18 µM.

In test [1], “3-[D-Ala]-4-[(2S,3R)-3-methyl-2-(methylamino)-6-morpholinohexanoyl]-cyclosporin (peptide)” had an OATP1B13 IC50 of 6.9 µM. For the same substance, the NIM TDI kinact/Ki with CYP3A4 was determined as 0.001.

On to “3-[D-Ala]-4-[(2S,3R)-4-methoxy-3-methyl-2-(methylamino)butanoyl]-cyclosporin (peptide)”, for which, in test [1], the OATP1B13 IC50 worked out at 1.9 µM. Also, the MRP2 IC50 in test [2] was 15 µM. This substance also came in with an NIM TDI kinact/Ki in the test with CYP3A4 of 5 M⁻¹ s⁻¹.

For “3-[D-Ala]-4-[(2S,3R)-5-methoxy-3-methyl-2-(methylamino)pentanoyl]-cyclosporin (peptide)”, the OATP1B13 IC50 in test [1] was 2.3 µM. Besides, the MRP2 IC50 in test [2] was found to be 13 µM.

As for “3-[D-Ala]-4-[(2S,3S)-3-methyl-2-(methylamino)-4-(2-((4-methylpiperazine-1-carbonyl)oxy)ethoxy)butanoyl]-cyclosporin (peptide)”, the OATP1B13 IC50 in test [1] came out at 8.7 µM. The substance also yielded an MRP2 IC50 in test [2] of 30 µM.

In turn, “3-[D-Ala]-4-[(2S,3S)-3-methyl-2-(methylamino)-4-(2-morpholinoethoxy)butanoyl]-cyclosporin (peptide)” returned an OATP1B13 IC50 in test [1] of 7.6 µM. This substance displayed an MRP2 IC50 in test [2] of 23 µM.

Substance “3-[D-Ala]-4-[(2S,3S)-3-methyl-2-(methylamino)-4-((4-methylpiperazine-1-carbonyl)oxy)butanoyl]-cyclosporin (peptide)” displayed an OATP1B13 IC50 in test [1] of 6.7 µM. For the same substance, the MRP2 IC50 in test [2] amounted to 21 µM.

Substance “3-[D-Ala]-4-[(2S,3S)-3-methyl-2-(methylamino)-4-(methylsulfonyl)butanoyl]-cyclosporin (peptide)” displayed an OATP1B13 IC50 in test [1] of 1.4 µM. In test [2], the MRP2 IC50 was 9 µM.

In turn, “3-[D-Ala]-4-[(2S,3S)-4-(2-(1,1-dioxidothiomorpholino)ethoxy)-3-methyl-2-(methylamino)butanoyl]-cyclosporin (peptide)” gave an OATP1B13 IC50 in test [1] of 3 µM. This substance came in with an MRP2 IC50 in test [2] of 28 µM.

For “3-[D-Ala]-4-[(2S,3S)-4-(2-(4-cyclobutylpiperazin-1-yl)ethoxy)-3-methyl-2-(methylamino)butanoyl]-cyclosporin (peptide)”, in test [1], the OATP1B13 IC50 amounted to 3.5 µM. The same substance came in with an NIM TDI kinact/Ki with CYP3A4 of 0.0007.

As for “3-[D-Ala]-4-[(2S,3S)-4-(2-hydroxy-2-methylpropoxy)-3-methyl-2-(methylamino)butanoyl]-cyclosporin (peptide)”, in test [1], the OATP1B13 IC50 worked out at 1.8 µM. Also, in the test with CYP3A4, the NIM TDI kinact/Ki stood at 0.0015.

In the case of “3-[D-Ala]-4-[(2S,3S)-4-(((S)-4-ethylmorpholin-2-yl)methoxy)-3-methyl-2-(methylamino)butanoyl]-cyclosporin (peptide)”, the OATP1B13 IC50 in test [1] stood at 1.9 µM. Moreover, in the test with CYP3A4, the NIM TDI kinact/Ki was 0.0004.

In test [1], “3-[D-Ala]-4-[(2S,3S)-4-methoxy-3-methyl-2-(methylamino)butanoyl]-cyclosporin (peptide)” came in with an OATP1B13 IC50 of 5.1 µM. Moreover, the MRP2 IC50 in test [2] was found to be 14 µM.

For the substance “3-[D-Ala]-4[(2S,3S)-2-Amino-4-[4-(2-methoxy-ethyl)-piperazin-1-yl]-3-methyl-butanoyl]-cyclosporin (peptide)”, the OATP1B13 IC50 in test [1] was determined as 3.2 µM.

In test [1], “3-[D-Ala]-4[(2S,3S)-3-methyl-2-(methylamino)-4-(4-(methylsulfonyl)piperazin-1-yl)butanoyl]-cyclosporin (peptide)” came in with an OATP1B13 IC50 of 0.4 µM.
